Experimental data taken from US20110092681A1.
Values joined by “and” are separate entries in the source; they are usually repeats but may differ in a detail not shown here. Identical values can stand only once.

Target: rFVIII (recombinant Factor VIII) (UniProt P00451)
Test: ELISA chromogenic assay (ECA): rFVIII incubated with rVWF, complex captured on anti-VWF antibody, bound FVIII read by chromogenic assay

FVIII binding (%): 51.7% and 64.6% and 63.1%
Substance: human recombinant VWF (rVWF) (from UniProt P04275 764-2813)
